# Publication PMC3633930, “Low Voltage Activation of KCa1.1 Current by Cav3-KCa1.1 Complexes” (PLoS ONE, 2013)
# B1: KCa1.1 potassium channel α-subunit, full length, myc-tagged, human (natural protein)
# chain: not shown
# Target: Cav3.2 calcium channel α-subunit, full length, human (human, UniProt O95180 1-2353)
# Test: cell-based or functional assay
# Sequence of Cav3.2 calcium channel α-subunit, full length, human (O95180 whole entry): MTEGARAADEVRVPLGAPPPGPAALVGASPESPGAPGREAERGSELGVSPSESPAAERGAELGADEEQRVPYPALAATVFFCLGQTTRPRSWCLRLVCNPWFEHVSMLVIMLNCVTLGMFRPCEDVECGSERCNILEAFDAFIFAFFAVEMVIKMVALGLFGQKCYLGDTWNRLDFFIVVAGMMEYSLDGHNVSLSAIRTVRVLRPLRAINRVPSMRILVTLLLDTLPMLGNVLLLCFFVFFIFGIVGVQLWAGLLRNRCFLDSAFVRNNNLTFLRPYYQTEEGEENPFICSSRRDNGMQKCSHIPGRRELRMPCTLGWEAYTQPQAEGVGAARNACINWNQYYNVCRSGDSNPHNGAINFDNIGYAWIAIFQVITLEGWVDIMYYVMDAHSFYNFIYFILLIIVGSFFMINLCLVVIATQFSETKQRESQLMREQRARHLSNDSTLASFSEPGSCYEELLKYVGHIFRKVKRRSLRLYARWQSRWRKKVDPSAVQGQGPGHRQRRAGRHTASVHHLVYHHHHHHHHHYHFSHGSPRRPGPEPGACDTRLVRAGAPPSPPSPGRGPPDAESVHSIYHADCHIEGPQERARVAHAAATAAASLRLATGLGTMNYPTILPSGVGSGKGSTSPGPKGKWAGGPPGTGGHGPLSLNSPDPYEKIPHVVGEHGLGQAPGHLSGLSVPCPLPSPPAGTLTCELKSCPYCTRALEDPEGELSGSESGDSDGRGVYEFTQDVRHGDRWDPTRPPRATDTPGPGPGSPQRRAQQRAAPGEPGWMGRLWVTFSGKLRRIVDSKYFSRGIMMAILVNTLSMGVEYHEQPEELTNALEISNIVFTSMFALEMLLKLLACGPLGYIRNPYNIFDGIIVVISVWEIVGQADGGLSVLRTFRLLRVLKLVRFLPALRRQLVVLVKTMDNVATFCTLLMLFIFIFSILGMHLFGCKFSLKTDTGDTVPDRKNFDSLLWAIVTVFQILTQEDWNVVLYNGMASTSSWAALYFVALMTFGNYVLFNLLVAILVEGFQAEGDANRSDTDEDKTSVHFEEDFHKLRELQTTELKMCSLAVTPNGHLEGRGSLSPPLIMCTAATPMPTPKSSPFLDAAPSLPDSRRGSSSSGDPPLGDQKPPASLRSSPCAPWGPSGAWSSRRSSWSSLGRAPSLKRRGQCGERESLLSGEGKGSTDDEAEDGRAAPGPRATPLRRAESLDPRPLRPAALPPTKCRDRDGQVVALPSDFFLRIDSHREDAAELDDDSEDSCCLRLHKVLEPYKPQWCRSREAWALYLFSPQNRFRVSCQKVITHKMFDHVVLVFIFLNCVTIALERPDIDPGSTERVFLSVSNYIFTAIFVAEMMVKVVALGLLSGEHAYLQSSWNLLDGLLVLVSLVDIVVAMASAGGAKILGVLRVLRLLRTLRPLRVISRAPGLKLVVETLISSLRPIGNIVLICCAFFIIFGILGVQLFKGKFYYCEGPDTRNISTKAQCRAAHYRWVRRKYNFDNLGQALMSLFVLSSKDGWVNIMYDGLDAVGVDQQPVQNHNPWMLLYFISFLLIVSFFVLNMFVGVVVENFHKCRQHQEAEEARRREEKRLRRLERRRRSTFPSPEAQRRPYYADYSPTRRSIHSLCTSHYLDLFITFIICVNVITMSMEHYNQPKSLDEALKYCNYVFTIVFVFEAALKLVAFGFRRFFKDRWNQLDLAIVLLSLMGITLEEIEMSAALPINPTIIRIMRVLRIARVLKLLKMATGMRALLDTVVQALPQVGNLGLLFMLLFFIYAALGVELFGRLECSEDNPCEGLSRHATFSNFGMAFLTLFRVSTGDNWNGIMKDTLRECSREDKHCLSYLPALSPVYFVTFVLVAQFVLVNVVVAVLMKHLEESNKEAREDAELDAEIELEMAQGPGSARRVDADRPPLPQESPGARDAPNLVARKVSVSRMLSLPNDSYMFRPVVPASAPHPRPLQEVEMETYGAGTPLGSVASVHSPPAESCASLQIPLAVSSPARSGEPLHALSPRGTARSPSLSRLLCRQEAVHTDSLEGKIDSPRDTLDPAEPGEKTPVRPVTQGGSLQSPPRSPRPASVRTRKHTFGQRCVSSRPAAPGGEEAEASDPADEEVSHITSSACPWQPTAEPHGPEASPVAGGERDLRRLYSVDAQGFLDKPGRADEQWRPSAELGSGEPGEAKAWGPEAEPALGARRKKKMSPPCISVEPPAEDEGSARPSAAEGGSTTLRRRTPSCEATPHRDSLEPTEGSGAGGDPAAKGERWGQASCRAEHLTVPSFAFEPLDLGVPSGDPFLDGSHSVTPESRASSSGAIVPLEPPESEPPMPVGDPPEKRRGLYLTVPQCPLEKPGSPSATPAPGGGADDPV
binder,measurement,value
B1,"fold increase of the P2/P1 ratio of KCa1.1 current at +40 mV when P2 is preceded by a −30 mV prepulse, whole-cell patch clamp of tsA-201 cells coexpressing Cav3.2 and KCa1.1",2.7 fold
